Target: Pol epsilon WT (holoenzyme) (Saccharomyces cerevisiae, UniProt P21951;P24482;P27344;Q04603 1-2222;1-689;1-201;1-196)
Experiment: EMSA

Pol epsilon WT (holoenzyme), sequence (P21951 whole entry, chain 1 of 4): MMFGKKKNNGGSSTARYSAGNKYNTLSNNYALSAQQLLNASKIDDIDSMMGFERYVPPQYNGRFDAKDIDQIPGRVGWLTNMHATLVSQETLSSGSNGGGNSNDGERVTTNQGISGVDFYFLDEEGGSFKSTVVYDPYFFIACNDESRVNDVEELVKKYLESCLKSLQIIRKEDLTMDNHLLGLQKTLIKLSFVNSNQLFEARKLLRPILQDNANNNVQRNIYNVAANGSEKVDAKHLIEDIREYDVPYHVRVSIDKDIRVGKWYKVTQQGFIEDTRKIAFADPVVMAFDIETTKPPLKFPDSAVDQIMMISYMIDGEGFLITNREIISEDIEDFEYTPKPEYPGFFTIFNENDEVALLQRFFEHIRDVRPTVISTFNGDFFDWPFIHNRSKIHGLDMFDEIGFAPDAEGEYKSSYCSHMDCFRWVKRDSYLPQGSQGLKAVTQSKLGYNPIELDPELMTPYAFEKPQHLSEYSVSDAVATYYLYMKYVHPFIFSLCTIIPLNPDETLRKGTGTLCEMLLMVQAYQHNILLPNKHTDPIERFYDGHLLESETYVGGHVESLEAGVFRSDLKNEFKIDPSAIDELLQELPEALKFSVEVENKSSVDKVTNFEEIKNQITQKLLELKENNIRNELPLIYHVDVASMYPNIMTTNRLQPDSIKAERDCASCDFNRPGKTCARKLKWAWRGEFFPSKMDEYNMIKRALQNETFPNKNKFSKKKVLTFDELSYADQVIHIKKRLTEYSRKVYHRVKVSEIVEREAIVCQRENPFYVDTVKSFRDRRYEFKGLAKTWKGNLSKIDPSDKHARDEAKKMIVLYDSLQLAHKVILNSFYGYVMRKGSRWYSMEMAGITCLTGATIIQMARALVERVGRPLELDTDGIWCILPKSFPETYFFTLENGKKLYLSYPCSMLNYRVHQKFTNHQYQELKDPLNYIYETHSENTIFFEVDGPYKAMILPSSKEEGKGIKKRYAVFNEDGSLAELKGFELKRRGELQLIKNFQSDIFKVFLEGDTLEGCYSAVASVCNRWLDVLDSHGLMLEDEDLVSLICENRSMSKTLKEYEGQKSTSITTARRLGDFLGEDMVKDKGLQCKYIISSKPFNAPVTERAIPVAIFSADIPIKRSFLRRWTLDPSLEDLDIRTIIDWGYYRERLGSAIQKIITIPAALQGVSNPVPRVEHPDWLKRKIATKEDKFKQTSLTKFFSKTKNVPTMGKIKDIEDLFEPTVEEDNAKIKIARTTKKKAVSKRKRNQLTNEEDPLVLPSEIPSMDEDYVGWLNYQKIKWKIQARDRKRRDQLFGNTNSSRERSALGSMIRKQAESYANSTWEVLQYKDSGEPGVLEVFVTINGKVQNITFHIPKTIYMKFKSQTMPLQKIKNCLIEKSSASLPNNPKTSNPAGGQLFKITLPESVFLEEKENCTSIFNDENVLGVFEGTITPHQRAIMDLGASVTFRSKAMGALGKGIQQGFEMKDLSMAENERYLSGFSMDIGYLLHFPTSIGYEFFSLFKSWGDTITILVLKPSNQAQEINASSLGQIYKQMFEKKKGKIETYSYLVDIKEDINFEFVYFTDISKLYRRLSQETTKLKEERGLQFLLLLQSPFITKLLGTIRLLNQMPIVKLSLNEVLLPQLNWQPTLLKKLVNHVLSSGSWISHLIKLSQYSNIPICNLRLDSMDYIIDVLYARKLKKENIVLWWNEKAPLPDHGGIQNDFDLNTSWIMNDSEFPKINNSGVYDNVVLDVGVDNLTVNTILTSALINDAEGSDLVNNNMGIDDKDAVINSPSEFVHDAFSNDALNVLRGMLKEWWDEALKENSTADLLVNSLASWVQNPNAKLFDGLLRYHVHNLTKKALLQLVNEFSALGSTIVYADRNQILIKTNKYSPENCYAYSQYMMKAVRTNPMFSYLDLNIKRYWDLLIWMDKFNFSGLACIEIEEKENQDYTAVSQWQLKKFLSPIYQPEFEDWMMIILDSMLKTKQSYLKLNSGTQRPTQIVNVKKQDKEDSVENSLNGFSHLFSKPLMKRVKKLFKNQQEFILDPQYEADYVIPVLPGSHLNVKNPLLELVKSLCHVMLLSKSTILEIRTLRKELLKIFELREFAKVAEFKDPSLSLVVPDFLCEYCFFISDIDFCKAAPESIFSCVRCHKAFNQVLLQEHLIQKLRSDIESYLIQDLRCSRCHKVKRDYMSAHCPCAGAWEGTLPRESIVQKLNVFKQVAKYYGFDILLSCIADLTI
Pol epsilon WT (holoenzyme), sequence (P24482 whole entry, chain 2 of 4): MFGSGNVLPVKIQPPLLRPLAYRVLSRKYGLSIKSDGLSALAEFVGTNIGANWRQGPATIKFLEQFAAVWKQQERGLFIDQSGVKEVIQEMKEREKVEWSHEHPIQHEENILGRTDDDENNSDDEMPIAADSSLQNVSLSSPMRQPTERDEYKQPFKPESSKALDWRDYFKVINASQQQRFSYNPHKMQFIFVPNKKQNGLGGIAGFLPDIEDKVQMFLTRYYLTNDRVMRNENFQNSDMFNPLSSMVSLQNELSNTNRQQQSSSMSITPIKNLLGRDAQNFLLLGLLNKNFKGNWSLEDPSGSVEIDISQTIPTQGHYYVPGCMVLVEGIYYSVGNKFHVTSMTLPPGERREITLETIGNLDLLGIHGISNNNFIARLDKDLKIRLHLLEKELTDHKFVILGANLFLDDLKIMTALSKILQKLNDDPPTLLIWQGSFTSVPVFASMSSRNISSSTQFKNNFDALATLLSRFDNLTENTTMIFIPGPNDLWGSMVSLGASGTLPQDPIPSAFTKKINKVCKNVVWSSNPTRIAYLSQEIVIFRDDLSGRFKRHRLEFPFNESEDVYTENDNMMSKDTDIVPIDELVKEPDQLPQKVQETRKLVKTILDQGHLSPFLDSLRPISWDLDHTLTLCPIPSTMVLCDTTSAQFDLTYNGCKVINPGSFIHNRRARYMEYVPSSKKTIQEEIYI
Pol epsilon WT (holoenzyme), sequence (P27344 whole entry, chain 3 of 4): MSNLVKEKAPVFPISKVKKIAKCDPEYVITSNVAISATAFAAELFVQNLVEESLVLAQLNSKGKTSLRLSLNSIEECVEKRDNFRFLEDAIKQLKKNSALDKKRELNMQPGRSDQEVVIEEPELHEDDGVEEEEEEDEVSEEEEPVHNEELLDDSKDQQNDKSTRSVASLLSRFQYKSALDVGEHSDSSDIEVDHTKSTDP
Pol epsilon WT (holoenzyme), sequence (Q04603 whole entry, chain 4 of 4): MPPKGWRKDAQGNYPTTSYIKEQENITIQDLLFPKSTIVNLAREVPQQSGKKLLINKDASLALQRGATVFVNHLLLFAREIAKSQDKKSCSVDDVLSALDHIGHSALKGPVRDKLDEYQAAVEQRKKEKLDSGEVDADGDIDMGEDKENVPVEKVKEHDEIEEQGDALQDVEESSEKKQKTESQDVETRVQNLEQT

B1: P50/T80-1 (mixed)
DNA 1: TGGAACTTTGTACGTCCAAAATTGAATGACTTGGCCAACTACACTAAGTT
DNA 2: GGATTACGAAACGAAGCACATTAGCCCTGGAACTTAGTGTAGTTGGCCAAGTCATTCAATTTTGGACGTACAAAGTTCCA
binding result: binds
